Bridge positions count the residues as written; N and C are the ends. Square brackets hold non-standard residues; d marks the D form. Ends that are not written are not given here. Trp(1-Me) = Cn1cc(C[C@H](N)C(=O)O)c2ccccc21; NMeI = CC[C@H](C)[C@H](NC)C(=O)O; Orn = NCCC[C@H](N)C(=O)O; Sar = CNCC(=O)O

B1: Peptide 20: Tyr-Gly-[Cys-Val-Trp(Me)-Gln-Asp-Trp-Sar-Ala-His-Arg-Cys]-mIle-NH2 (peptide)
peptide: YGCV[Trp(1-Me)]QDW[Sar]AHRC[NMeI]-NH2
modifications: disulfide 3-13; N-terminus assumed
SMILES: CC[C@H](C)[C@@H](C(N)=O)N(C)C(=O)[C@@H]1CSSC[C@H](NC(=O)CNC(=O)[C@@H](N)Cc2ccc(O)cc2)C(=O)N[C@@H](C(C)C)C(=O)N[C@@H](Cc2cn(C)c3ccccc23)C(=O)N[C@@H](CCC(N)=O)C(=O)N[C@@H](CC(=O)O)C(=O)N[C@@H](Cc2c[nH]c3ccccc23)C(=O)N(C)CC(=O)N[C@@H](C)C(=O)N[C@@H](Cc2c[nH]cn2)C(=O)N[C@@H](CCCNC(=N)N)C(=O)N1
B2: Cp40 (6Asn) (peptide)
peptide: [dY]ICV[Trp(1-Me)]QNW[Sar]AHRC[NMeI]-NH2
modifications: disulfide 3-13; N-terminus assumed
SMILES: CC[C@H](C)[C@H](NC(=O)[C@H](N)Cc1ccc(O)cc1)C(=O)N[C@H]1CSSC[C@@H](C(=O)N(C)[C@H](C(N)=O)[C@@H](C)CC)NC(=O)[C@H](CCCNC(=N)N)NC(=O)[C@H](Cc2c[nH]cn2)NC(=O)[C@H](C)NC(=O)CN(C)C(=O)[C@H](Cc2c[nH]c3ccccc23)NC(=O)[C@H](CC(N)=O)NC(=O)[C@H](CCC(N)=O)NC(=O)[C@H](Cc2cn(C)c3ccccc23)NC(=O)[C@H](C(C)C)NC1=O
B3: Peptide 5: Phe-Ile-[Cys-Val-Trp(Me)-Gln-Asp-Trp-Sar-Ala-His-Arg-Cys]-mIle-NH2 (peptide)
peptide: FICV[Trp(1-Me)]QDW[Sar]AHRC[NMeI]-NH2
modifications: disulfide 3-13; N-terminus assumed
SMILES: CC[C@H](C)[C@H](NC(=O)[C@@H](N)Cc1ccccc1)C(=O)N[C@H]1CSSC[C@@H](C(=O)N(C)[C@H](C(N)=O)[C@@H](C)CC)NC(=O)[C@H](CCCNC(=N)N)NC(=O)[C@H](Cc2c[nH]cn2)NC(=O)[C@H](C)NC(=O)CN(C)C(=O)[C@H](Cc2c[nH]c3ccccc23)NC(=O)[C@H](CC(=O)O)NC(=O)[C@H](CCC(N)=O)NC(=O)[C@H](Cc2cn(C)c3ccccc23)NC(=O)[C@H](C(C)C)NC1=O
B4: Peptide 12: mIle-Ile-[Cys-Val-Trp(Me)-Gln-Asp-Trp-Sar-Ala-His-Arg-Cys]-mIle-NH2 (peptide)
peptide: IICVWQDWGAHRCI
modifications: mIle (N-methyl-Ile; printed 'mlle') at Xaa0; Trp(Me) at position 4; Sar at position 8; mIle at position 13; C-terminal -NH2; cyclic via Cys2-Cys12 disulfide (compstatin position numbering)
B5: Peptide 2: Gly-Ile-[Cys-Val-Trp(Me)-Gln-Asp-Trp-Sar-Ala-His-Arg-Cys]-mIle-NH2 (peptide)
peptide: GICV[Trp(1-Me)]QDW[Sar]AHRC[NMeI]-NH2
modifications: disulfide 3-13; N-terminus assumed
SMILES: CC[C@H](C)[C@H](NC(=O)CN)C(=O)N[C@H]1CSSC[C@@H](C(=O)N(C)[C@H](C(N)=O)[C@@H](C)CC)NC(=O)[C@H](CCCNC(=N)N)NC(=O)[C@H](Cc2c[nH]cn2)NC(=O)[C@H](C)NC(=O)CN(C)C(=O)[C@H](Cc2c[nH]c3ccccc23)NC(=O)[C@H](CC(=O)O)NC(=O)[C@H](CCC(N)=O)NC(=O)[C@H](Cc2cn(C)c3ccccc23)NC(=O)[C@H](C(C)C)NC1=O
B6: Peptide 8: Thr-Ile-[Cys-Val-Trp(Me)-Gln-Asp-Trp-Sar-Ala-His-Arg-Cys]-mIle-NH2 (peptide)
peptide: TICV[Trp(1-Me)]QDW[Sar]AHRC[NMeI]-NH2
modifications: disulfide 3-13; N-terminus assumed
SMILES: CC[C@H](C)[C@H](NC(=O)[C@@H](N)[C@@H](C)O)C(=O)N[C@H]1CSSC[C@@H](C(=O)N(C)[C@H](C(N)=O)[C@@H](C)CC)NC(=O)[C@H](CCCNC(=N)N)NC(=O)[C@H](Cc2c[nH]cn2)NC(=O)[C@H](C)NC(=O)CN(C)C(=O)[C@H](Cc2c[nH]c3ccccc23)NC(=O)[C@H](CC(=O)O)NC(=O)[C@H](CCC(N)=O)NC(=O)[C@H](Cc2cn(C)c3ccccc23)NC(=O)[C@H](C(C)C)NC1=O
B7: Peptide 1: Me-Ile-[Cys-Val-Trp(Me)-Gln-Asp-Trp-Sar-Ala-His-Arg-Cys]-mIle-NH2 (peptide)
peptide: Me-ICVWQDW[Sar]AHRC[NMeI]-NH2
modifications: disulfide 2-12; not fully specified (residue 4); printed as Me-Ile-[Cys-Val-Trp(Me)-Gln-Asp-Trp-Sar-Ala-His-Arg-Cys]-mIle-NH2
B8: Peptide 19: Ac-Trp-[Cys-Val-Trp(Me)-Gln-Asp-Trp-Sar-Ala-His-Arg-Cys]-mIle-NH2 (peptide)
peptide: Ac-WCV[Trp(1-Me)]QDW[Sar]AHRC[NMeI]-NH2
modifications: disulfide 2-12
SMILES: CC[C@H](C)[C@@H](C(N)=O)N(C)C(=O)[C@@H]1CSSC[C@H](NC(=O)[C@H](Cc2c[nH]c3ccccc23)NC(C)=O)C(=O)N[C@@H](C(C)C)C(=O)N[C@@H](Cc2cn(C)c3ccccc23)C(=O)N[C@@H](CCC(N)=O)C(=O)N[C@@H](CC(=O)O)C(=O)N[C@@H](Cc2c[nH]c3ccccc23)C(=O)N(C)CC(=O)N[C@@H](C)C(=O)N[C@@H](Cc2c[nH]cn2)C(=O)N[C@@H](CCCNC(=N)N)C(=O)N1
B9: Peptide 7: Trp-Ile-[Cys-Val-Trp(Me)-Gln-Asp-Trp-Sar-Ala-His-Arg-Cys]-mIle-NH2 (peptide)
peptide: WICV[Trp(1-Me)]QDW[Sar]AHRC[NMeI]-NH2
modifications: disulfide 3-13; N-terminus assumed
SMILES: CC[C@H](C)[C@H](NC(=O)[C@@H](N)Cc1c[nH]c2ccccc12)C(=O)N[C@H]1CSSC[C@@H](C(=O)N(C)[C@H](C(N)=O)[C@@H](C)CC)NC(=O)[C@H](CCCNC(=N)N)NC(=O)[C@H](Cc2c[nH]cn2)NC(=O)[C@H](C)NC(=O)CN(C)C(=O)[C@H](Cc2c[nH]c3ccccc23)NC(=O)[C@H](CC(=O)O)NC(=O)[C@H](CCC(N)=O)NC(=O)[C@H](Cc2cn(C)c3ccccc23)NC(=O)[C@H](C(C)C)NC1=O
B10: Peptide 13: mAla-Ile-[Cys-Val-Trp(Me)-Gln-Asp-Trp-Sar-Ala-His-Arg-Cys]-mIle-NH2 (peptide)
peptide: AICVWQDWGAHRCI
modifications: mAla (N-methyl-Ala) at Xaa0; Trp(Me) at position 4; Sar at position 8; mIle at position 13; C-terminal -NH2; cyclic via Cys2-Cys12 disulfide (compstatin position numbering)
B11: Peptide 11: mVal-Ile-[Cys-Val-Trp(Me)-Gln-Asp-Trp-Sar-Ala-His-Arg-Cys]-mIle-NH2 (peptide)
peptide: VICVWQDWGAHRCI
modifications: mVal (N-methyl-Val) at Xaa0; Trp(Me) at position 4; Sar at position 8; mIle at position 13; C-terminal -NH2; cyclic via Cys2-Cys12 disulfide (compstatin position numbering)
B12: Peptide 6: Arg-Ile-[Cys-Val-Trp(Me)-Gln-Asp-Trp-Sar-Ala-His-Arg-Cys]-mIle-NH2 (peptide)
peptide: RICV[Trp(1-Me)]QDW[Sar]AHRC[NMeI]-NH2
modifications: disulfide 3-13; N-terminus assumed
SMILES: CC[C@H](C)[C@H](NC(=O)[C@@H](N)CCCNC(=N)N)C(=O)N[C@H]1CSSC[C@@H](C(=O)N(C)[C@H](C(N)=O)[C@@H](C)CC)NC(=O)[C@H](CCCNC(=N)N)NC(=O)[C@H](Cc2c[nH]cn2)NC(=O)[C@H](C)NC(=O)CN(C)C(=O)[C@H](Cc2c[nH]c3ccccc23)NC(=O)[C@H](CC(=O)O)NC(=O)[C@H](CCC(N)=O)NC(=O)[C@H](Cc2cn(C)c3ccccc23)NC(=O)[C@H](C(C)C)NC1=O
B13: Peptide 10: mPhe-Ile-[Cys-Val-Trp(Me)-Gln-Asp-Trp-Sar-Ala-His-Arg-Cys]-mIle-NH2 (peptide)
peptide: FICVWQDWGAHRCI
modifications: mPhe (N-methyl-Phe) at Xaa0; Trp(Me) at position 4; Sar at position 8; mIle at position 13; C-terminal -NH2; cyclic via Cys2-Cys12 disulfide (compstatin position numbering)
B14: Compstatin 30 (Cp30): Sar-Ile-[Cys-Val-Trp(Me)-Gln-Asp-Trp-Sar-Ala-His-Arg-Cys]-mIle-NH2 (peptide)
peptide: GICVWQDWGAHRCI
modifications: Sar (N-methyl-Gly) at Xaa0 (N-terminus); Trp(Me) at position 4; Sar at position 8; mIle at position 13; C-terminal -NH2; cyclic via Cys2-Cys12 disulfide (compstatin position numbering)

The target in the first assay is C3b (biotinylated, captured site-specifically on a streptavidin chip) (UniProt P01024). Description: SPR on immobilised C3b.
Consider B1, for which the fold weaker binding affinity than peptide 4 stood at 3 fold.

For the next assay the target is unchanged. Description: SPR, single-cycle kinetics on immobilised C3b (method of Example 2). On the technique in general: In SPR one partner is held on a chip, and binding of the other changes the refractive index at the surface.
By Kd is commonly meant the constant that tells how readily two partners part at equilibrium. A lower Kd goes with higher affinity. In general, koff refers to the rate constant with which the complex falls apart. A lower koff goes with slow dissociation. In general, kon refers to the rate constant with which the complex forms. A high value points to faster complex formation. B2: the Kd was found to be 3 nM, the koff stood at 0.0028 s⁻¹ and the kon stood at 900000 M⁻¹ s⁻¹.

In turn, [dY]ICV[Trp(1-Me)]QDW[Sar]AH[Orn]C[NMeI]-NH2 (disulfide 3-13) [Cp40 (11Orn)] registered a Kd of 0.8 nM, a koff of 0.002 s⁻¹ and a kon of 2.5e+06 M⁻¹ s⁻¹.

As to [dY]ICV[Trp(1-Me)]QNW[Sar]AH[Orn]C[NMeI]-NH2 (disulfide 3-13) [Cp40 (11Orn 6Asn)], the Kd was determined as 1.5 nM, the koff came out at 0.0028 s⁻¹ and the kon was 2e+06 M⁻¹ s⁻¹.

Another assay shares this target. As to the kind of experiment: SPR (Biacore 3000), single-cycle kinetics, biotinylated C3b on streptavidin chip, peptide as analyte, 1:1 Langmuir fit.
Molecule B3 displayed a Kd of 1.6 nM, a koff of 0.0033 s⁻¹ and an on-rate (kon) of 2.1e+06 M⁻¹ s⁻¹.

B4: the equilibrium dissociation constant (Kd) worked out at 2.4 nM, the koff came to 0.0037 s⁻¹ and the kon is 1.6e+06 M⁻¹ s⁻¹.

For the molecule B5, the Kd worked out at 2.5 nM, the koff came to 0.0029 s⁻¹ and the kon stood at 1.2e+06 M⁻¹ s⁻¹.

B6 yielded a Kd of 2.6 nM, a koff of 0.0031 s⁻¹ and a kon of 1.2e+06 M⁻¹ s⁻¹.

For the molecule B7, the Kd was found to be 18.6 nM, the koff came to 0.0248 s⁻¹ and the kon is 1.3e+06 M⁻¹ s⁻¹.

With B8, the Kd was found to be 0.5 nM, the koff turned out to be 0.0017 s⁻¹ and the kon came out at 3.8e+06 M⁻¹ s⁻¹.

As to B9, the Kd turned out to be 2.2 nM, the off-rate (koff) is 0.0036 s⁻¹ and the kon turned out to be 1.6e+06 M⁻¹ s⁻¹.

As to B10, the Kd came out at 2.5 nM, the koff stood at 0.0034 s⁻¹ and the on-rate (kon) was 1.4e+06 M⁻¹ s⁻¹.

Molecule B1 returned a Kd of 3.5 nM, a koff of 0.0073 s⁻¹ and a kon of 2.1e+06 M⁻¹ s⁻¹.

Turning to B11, the Kd turned out to be 1.9 nM, the koff turned out to be 0.0035 s⁻¹ and the kon amounted to 1.8e+06 M⁻¹ s⁻¹.

The molecule B12 showed a Kd of 1.7 nM, a koff of 0.0029 s⁻¹ and a kon of 1.7e+06 M⁻¹ s⁻¹.

Take B13: the Kd stood at 1.8 nM, the koff came out at 0.0029 s⁻¹ and the kon came out at 1.6e+06 M⁻¹ s⁻¹.

In turn, B14 had a Kd of 1.6 nM, a koff of 0.0029 s⁻¹ and a kon of 1.9e+06 M⁻¹ s⁻¹.

The values are drawn from US20210032291A1, “Compstatin Analogs With Improved Pharmacokinetic Properties” (The Trustees of the University of Pennsylvania, priority 2011, published 2021).
